A short description of this data set: self-splicing fitness, log relative to wild type (ln ratio); higher = more splicing; Tetrahymena group I intron in knt gene, E. coli kanamycin selection, DiMSum; sequences stand for … in CUCUCU…GGAGGGAAAAGUUAUCAGGCAUGCACCUGGUAGCUAGUCUUUAAACCAAUAGAUUGCAUCGGUUUAAAAGGCAAGACCGUCAAAUUGCGGGAAAGGGGUCAACAGCCGUUCAGUACCAAGUCUCAGGGGAAACUUUGAGAUGGCCUUGCAAAGGGUAUGGUAAUAAGCUGACGGACAUGGUCCUAACCACGCAGCCAAGUCCUAAGUCAACAGAUCUUCUGUUGAUAUGGAUGCAGUUCACAGACUAAAUGUCGGUCGGGGAAGAUGUAUUCUUCUCAUAAGAUAUAGUCGGACCUCUCCUUAAUGGGAGCUAGCGGAUGAAGUGAUGCAACACUGGAGCCGCUGGGAACUAAUUUGUAUGCGAAAGUAUAUUGAUUAGUUUUGGAGUACUCGUGGUCG
In short, it runs like this: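 Six replicate transformations of E. coli BL21(DE3) with a pET-22b(+) library were grown overnight at 37°C or 30°C. The library randomised all eight P1ex-region intron nucleotides, the intron lying in the knt kanamycin-resistance gene, and plates were LB agar with or without 25 μg/mL kanamycin plus 100 μg/mL carbenicillin, 50 μM IPTG and 0.2% rhamnose. Pooled colonies were amplicon-sequenced on an Illumina HiSeq 2500, and fitness is the DiMSum error-weighted combination of wild-type-normalised replicate fold changes, kanamycin versus none.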

± gives the uncertainty stated by the source.

In the case of UGAAAGCAAUAUUACGACCG, the “self-splicing fitness (ln)” value runs as follows: (30 °C) -0.0402 ± 0.16; (37 °C) 0.0392 ± 0.2. For UCCAAGCAAUAUUACGAAUA, the “self-splicing fitness (ln)” value was -2.4 ± 0.16 (30 °C) and -1.13 ± 0.097 (37 °C). As to GCAAAGCAAUAUUACGGCGU, the “self-splicing fitness (ln)” value by setting is: (30 °C) -1.78 ± 0.1; (37 °C) -0.692 ± 0.12. Take CCAAAGCAAUAUUACGGGAG: the “self-splicing fitness (ln)” value runs as follows: (30 °C) -3.08 ± 0.18; (37 °C) -2.78 ± 0.26. Turning to ACACAGCAAUAUUACGCGGA, the “self-splicing fitness (ln)” value is -1.98 ± 0.072 (30 °C) and -1.1 ± 0.07 (37 °C). In the same order, the values of GCUCAGCAAUAUUACGGCGG are -3.09 ± 0.29 and -1.46 ± 0.29. For AGACAGCAAUAUUACGUCCG the same measures were -0.314 ± 0.12 and -0.305 ± 0.15. For GGACAGCAAUAUUACGUCCU, the “self-splicing fitness (ln)” value is, setting by setting: (30 °C) -4.07 ± 0.22; (37 °C) -2.66 ± 0.33.

For GAGAAGCAAUAUUACGUGGC, the “self-splicing fitness (ln)” value (30 °C) is -3.59 ± 0.17 and the “self-splicing fitness (ln)” value (37 °C) is -0.933 ± 0.11. As for AGGGAGCAAUAUUACGCGAU, the “self-splicing fitness (ln)” value was -2.89 ± 0.29 (30 °C) and -1.84 ± 0.47 (37 °C).

CGAAAGCAAUAUUACGUACU: the “self-splicing fitness (ln)” value runs as follows: (30 °C) -0.756 ± 0.078; (37 °C) 0.23 ± 0.098. For AUCCAGCAAUAUUACGAAAU the same measures were -0.769 ± 0.084 and -0.546 ± 0.11. As for CUGAAGCAAUAUUACGUUCA, the “self-splicing fitness (ln)” value is, setting by setting: (30 °C) -1.87 ± 0.11; (37 °C) -0.567 ± 0.12. In the same order, the values of AGGCAGCAAUAUUACGCGGU are -3.61 ± 0.19 and -2.98 ± 0.17. Consider UCUCAGCAAUAUUACGAAGA, for which the “self-splicing fitness (ln)” value is -1.98 ± 0.15 (30 °C) and -1.21 ± 0.15 (37 °C). In the case of UAGUAGCAAUAUUACGUAGG, the “self-splicing fitness (ln)” value (30 °C) is -3.19 ± 0.47. Turning to UUUAAGCAAUAUUACGACUU, the “self-splicing fitness (ln)” value (30 °C) is -2.03 ± 0.12 and the “self-splicing fitness (ln)” value (37 °C) was -0.889 ± 0.12.

Regarding UAAAAGCAAUAUUACGGUUU, the “self-splicing fitness (ln)” value was -2.78 ± 0.095 (30 °C) and -0.178 ± 0.091 (37 °C). For ACGGAGCAAUAUUACGUAAC the same measures were -3.72 ± 0.37 and -1.66 ± 0.22. For GCAAAGCAAUAUUACGUCGC, the “self-splicing fitness (ln)” value is -1.48 ± 0.16 (30 °C) and -2.45 ± 0.27 (37 °C). In the case of AUUAAGCAAUAUUACGCGCU, the “self-splicing fitness (ln)” value runs as follows: (30 °C) -0.542 ± 0.11; (37 °C) -0.561 ± 0.15. Consider GAUUAGCAAUAUUACGCGAG, for which the “self-splicing fitness (ln)” value is, setting by setting: (30 °C) -2.28 ± 0.17; (37 °C) -0.865 ± 0.12.

For CGUCAGCAAUAUUACGGAAC, the “self-splicing fitness (ln)” value was -2.22 ± 0.27 (30 °C) and -2.61 ± 0.25 (37 °C). With CAUAAGCAAUAUUACGCCGU, the “self-splicing fitness (ln)” value (30 °C) is -3.29 ± 0.36 and the “self-splicing fitness (ln)” value (37 °C) is -1.15 ± 0.19.

Regarding CGUAAGCAAUAUUACGAGCU, the “self-splicing fitness (ln)” value by setting is: (30 °C) -3.7 ± 0.37; (37 °C) -2.53 ± 0.41. In the same order, the values of AGACAGCAAUAUUACGCGCA are -0.449 ± 0.084 and 0.312 ± 0.13.

On to UCGAAGCAAUAUUACGAGUA, for which the “self-splicing fitness (ln)” value (30 °C) is -2.08 ± 0.14 and the “self-splicing fitness (ln)” value (37 °C) was -0.398 ± 0.12. For UCGUAGCAAUAUUACGCCAA the same measures were -3.89 ± 0.3 and -1.4 ± 0.17. In the same order, the values of GCAAAGCAAUAUUACGCCAC are -3.15 ± 0.27 and -1.93 ± 0.19. As for GUAGAGCAAUAUUACGGCGA, the “self-splicing fitness (ln)” value was -1.87 ± 0.13 (30 °C) and -0.23 ± 0.16 (37 °C). For UACCAGCAAUAUUACGAGAU the same measures were -3.69 ± 0.21 and -3.25 ± 0.13. In the same order, the values of AUAGAGCAAUAUUACGGUUG are -3.21 ± 0.23 and -1.92 ± 0.22. As for ACCAAGCAAUAUUACGGACU, the “self-splicing fitness (ln)” value reads like this: (30 °C) -0.029 ± 0.046; (37 °C) 0.262 ± 0.062. For AUCAAGCAAUAUUACGCUAU the same measures were -3.18 ± 0.16 and -0.907 ± 0.12. Consider UGAUAGCAAUAUUACGGCUC, for which the “self-splicing fitness (ln)” value was -2.21 ± 0.15 (30 °C) and -1.29 ± 0.17 (37 °C). Turning to UCCGAGCAAUAUUACGCUUA, the “self-splicing fitness (ln)” value by setting is: (30 °C) -2.39 ± 0.41; (37 °C) -2.47 ± 0.39.

AGUCAGCAAUAUUACGCUUG: the “self-splicing fitness (ln)” value is -2.79 ± 0.15 (30 °C) and -0.514 ± 0.15 (37 °C).

As to ACCUAGCAAUAUUACGGGUC, the “self-splicing fitness (ln)” value reads like this: (30 °C) -4.05 ± 0.23; (37 °C) -2.57 ± 0.23. As to GGUAAGCAAUAUUACGCCUU, the “self-splicing fitness (ln)” value by setting is: (30 °C) -1.49 ± 0.15; (37 °C) -0.81 ± 0.15. In the case of CCGUAGCAAUAUUACGUAAA, the “self-splicing fitness (ln)” value was -3.22 ± 0.13 (30 °C) and -2.38 ± 0.23 (37 °C). For AAACAGCAAUAUUACGGCAA the same measures were -0.944 ± 0.096 and -0.612 ± 0.11. For the sequence CUCCAGCAAUAUUACGGGCU, the “self-splicing fitness (ln)” value was -3.21 ± 0.13 (30 °C) and -2.49 ± 0.18 (37 °C).

Turning to UAACAGCAAUAUUACGCAUU, the “self-splicing fitness (ln)” value (30 °C) is -2.59 ± 0.12 and the “self-splicing fitness (ln)” value (37 °C) is -0.539 ± 0.096. Regarding GCGGAGCAAUAUUACGGGCG, the “self-splicing fitness (ln)” value was -1.83 ± 0.13 (30 °C) and -1.21 ± 0.17 (37 °C). For AAUGAGCAAUAUUACGUUAU, the “self-splicing fitness (ln)” value was -4.01 ± 0.21 (30 °C) and -3.73 ± 0.24 (37 °C). On to UGCGAGCAAUAUUACGCGAU, for which the “self-splicing fitness (ln)” value (30 °C) was -2.39 ± 0.42. Consider GCGUAGCAAUAUUACGACGU, for which the “self-splicing fitness (ln)” value is, setting by setting: (30 °C) -3.1 ± 0.16; (37 °C) -1.45 ± 0.28. As to UAAUAGCAAUAUUACGAACA, the “self-splicing fitness (ln)” value (30 °C) is -1.07 ± 0.14 and the “self-splicing fitness (ln)” value (37 °C) is -0.685 ± 0.13.

AGGCAGCAAUAUUACGUUCC: the “self-splicing fitness (ln)” value reads like this: (30 °C) -0.801 ± 0.12; (37 °C) -0.27 ± 0.16.

Consider GAUUAGCAAUAUUACGAUAU, for which the “self-splicing fitness (ln)” value was -1.19 ± 0.11 (30 °C) and -0.869 ± 0.13 (37 °C).

In the case of GCUCAGCAAUAUUACGUAGG, the “self-splicing fitness (ln)” value was 0.139 ± 0.052 (30 °C) and 0.32 ± 0.076 (37 °C). In the same order, the values of UACCAGCAAUAUUACGGCCA are -0.369 ± 0.073 and -0.0799 ± 0.097. For the sequence GGUCAGCAAUAUUACGACCC, the “self-splicing fitness (ln)” value is, setting by setting: (30 °C) -2.52 ± 0.27; (37 °C) -2.43 ± 0.41. For GGUAAGCAAUAUUACGGCUA, the “self-splicing fitness (ln)” value by setting is: (30 °C) 0.109 ± 0.085; (37 °C) -0.0128 ± 0.11. On to GUUUAGCAAUAUUACGGUCA, for which the “self-splicing fitness (ln)” value was -1.26 ± 0.19 (30 °C) and -0.326 ± 0.16 (37 °C). As for UUACAGCAAUAUUACGCAGC, the “self-splicing fitness (ln)” value was -4.38 ± 0.26 (30 °C) and -3.01 ± 0.16 (37 °C). In the same order, the values of AUUGAGCAAUAUUACGGUCG are -2.92 ± 0.36 and -2.52 ± 0.45. In the same order, the values of CUCAAGCAAUAUUACGUGCU are -4.3 ± 0.24 and -2.73 ± 0.17. In the same order, the values of GUUCAGCAAUAUUACGGAUU are -0.537 ± 0.092 and 0.247 ± 0.14.

In the case of AGAUAGCAAUAUUACGAGCC, the “self-splicing fitness (ln)” value is -0.476 ± 0.18 (30 °C) and -1.76 ± 0.28 (37 °C). As for CGGGAGCAAUAUUACGUGAC, the “self-splicing fitness (ln)” value reads like this: (30 °C) -2.16 ± 0.32; (37 °C) -2.9 ± 0.44. On to GCUAAGCAAUAUUACGACUG, for which the “self-splicing fitness (ln)” value was -0.97 ± 0.1 (30 °C) and -0.946 ± 0.14 (37 °C). As to AUACAGCAAUAUUACGAUCC, the “self-splicing fitness (ln)” value (30 °C) is -0.368 ± 0.12 and the “self-splicing fitness (ln)” value (37 °C) is -1.59 ± 0.15. On to GAACAGCAAUAUUACGUCCU, for which the “self-splicing fitness (ln)” value (30 °C) is -1.24 ± 0.09 and the “self-splicing fitness (ln)” value (37 °C) is -0.941 ± 0.11. As to AUGCAGCAAUAUUACGAUAG, the “self-splicing fitness (ln)” value was -2.99 ± 0.19 (30 °C) and -2.57 ± 0.22 (37 °C). For UUAGAGCAAUAUUACGGCCG the same measures were -0.608 ± 0.15 and -0.234 ± 0.23. Regarding UGUCAGCAAUAUUACGGACU, the “self-splicing fitness (ln)” value is, setting by setting: (30 °C) -1.36 ± 0.12; (37 °C) 0.712 ± 0.13. As for UUAAAGCAAUAUUACGUAUC, the “self-splicing fitness (ln)” value by setting is: (30 °C) -2.17 ± 0.12; (37 °C) -1.87 ± 0.16. For UUACAGCAAUAUUACGUUCC, the “self-splicing fitness (ln)” value runs as follows: (30 °C) -3.34 ± 0.26; (37 °C) -2.22 ± 0.46. On to CUGUAGCAAUAUUACGGAUA, for which the “self-splicing fitness (ln)” value (30 °C) is -2.3 ± 0.28 and the “self-splicing fitness (ln)” value (37 °C) was -2.22 ± 0.33. Regarding CCAUAGCAAUAUUACGAGGU, the “self-splicing fitness (ln)” value is, setting by setting: (30 °C) -3.37 ± 0.26; (37 °C) -2.67 ± 0.23.

Consider CUUUAGCAAUAUUACGCGCA, for which the “self-splicing fitness (ln)” value by setting is: (30 °C) -2.5 ± 0.31; (37 °C) -1.77 ± 0.42. In the same order, the values of UUAUAGCAAUAUUACGUAGU are -3.03 ± 0.24 and -2.71 ± 0.4. As for UAGGAGCAAUAUUACGAGGG, the “self-splicing fitness (ln)” value reads like this: (30 °C) -3.6 ± 0.42; (37 °C) -2.35 ± 0.33. For GCUGAGCAAUAUUACGCCUU the same measures were -1.98 ± 0.31 and -1.48 ± 0.44.

(Values after the supplement of paper PMC7877785.)
